Molecular target: Recombinant rat IFN-γ (rat) (UniProt P01581)
Chain of UniProt P01581 (P01581 23-156 limits assumed): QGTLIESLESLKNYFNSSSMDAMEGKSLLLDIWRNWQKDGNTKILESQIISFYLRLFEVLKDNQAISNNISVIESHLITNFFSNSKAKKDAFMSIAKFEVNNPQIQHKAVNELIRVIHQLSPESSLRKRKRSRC

## Recombinant B8R protein
  percent neutralization: > 50%

— US20260071233A1
